Measured values from PMC6125123.

Target: HA-K^b (H-2K^b heavy chain with an N-terminal HA tag, no GFP) (mus musculus)
Test: two-hybrid antibody micropattern assay (co-capture on live cells, confocal fluorescence microscopy); HA-tagged bait captured on printed anti-HA (12CA5) micropatterns on glass; GFP-tagged prey read out; co-transduced STF1 cells, 25°C overnight, then shifted to 37°C for 3-4 hr to dissociate …; no peptide

Chain of HA-K^b (H-2K^b heavy chain with an N-terminal HA tag, no GFP) (mus musculus) (P01901 22-369): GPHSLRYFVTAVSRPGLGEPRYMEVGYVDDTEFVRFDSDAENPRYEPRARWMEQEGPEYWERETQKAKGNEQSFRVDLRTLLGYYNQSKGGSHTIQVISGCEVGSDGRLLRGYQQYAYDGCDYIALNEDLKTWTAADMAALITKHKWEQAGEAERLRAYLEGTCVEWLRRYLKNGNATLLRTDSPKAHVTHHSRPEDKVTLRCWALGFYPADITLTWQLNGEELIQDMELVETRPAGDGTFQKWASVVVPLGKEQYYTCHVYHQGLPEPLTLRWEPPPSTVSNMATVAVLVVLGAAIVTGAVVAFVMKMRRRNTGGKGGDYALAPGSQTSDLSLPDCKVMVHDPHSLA

ratio of GFP fluorescence intensity on pattern elements over total fluorescence intensity (background 1.1): 1.3
Substance: K^b-GFP (H-2K^b heavy chain with GFP fused to the cytoplasmic tail, no HA tag) (natural protein)
